# Experimental data from US10875904B2.
# Molecular target: ovalbumin peptide SIINFEKL presented on mouse MHC Class I H-2Kb on OP9-DL1 cells (mouse) (UniProt P01901)
# Assay: cell-based or functional assay
# Chain of UniProt P01901 (P01901 22-369): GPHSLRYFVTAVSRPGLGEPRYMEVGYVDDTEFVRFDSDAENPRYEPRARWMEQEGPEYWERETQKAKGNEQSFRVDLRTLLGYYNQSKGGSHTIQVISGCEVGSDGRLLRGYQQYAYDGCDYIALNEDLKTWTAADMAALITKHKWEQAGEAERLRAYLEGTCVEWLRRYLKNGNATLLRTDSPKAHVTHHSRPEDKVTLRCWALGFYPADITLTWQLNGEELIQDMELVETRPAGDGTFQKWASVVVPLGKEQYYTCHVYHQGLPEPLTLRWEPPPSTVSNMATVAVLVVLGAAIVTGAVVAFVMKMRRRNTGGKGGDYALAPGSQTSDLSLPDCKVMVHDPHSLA
substance,measurement,value
OT-1 transgenic TCR (specific for ovalbumin peptide SIINFEKL presented on H-2Kb),"development or survival of double positive (DP) T cells from OT-1 progenitors in OP9-DL1 culture, flow cytometry",> 0.01 µM
